In patent US20260151453A1, “COMBINATION THERAPY FOR THE TREATMENT OF CANCER” (PEPTOMYC, S.L., priority 2022, published 2026):

Columns and labels:
[1] = system: SUM149 cell-derived xenograft (CDX); test: SUM149 cell-derived xenograft (CDX) model, orthotopic in mammary fat-pad, tumour growth; type: in vivo; details: SUM149 CDX mice, 4 weeks; Omomyc 50 mg/kg intravenous once a week; Olaparib 50 mg/kg oral gavage 6 times a week; preliminary
Method: SUM149 cell-derived xenograft (CDX) model mice were used for in vivo studies. Each mouse was inoculated orthotopically in the mammary fat-pad with 5 million cells. As the tumours reached 100 mm^3, mice were randomised in 4 treatment groups. Specifically, mice were treated with Omomyc once a week (50 mg/kg, intravenous), with Olaparib 6 times a week (50 mg/kg oral gavage), with the combination of the 2 drugs (combo) or with vehicle alone for 4 weeks. Relative volume was calculated as a percentage of tumour growth from the day of randomization and beginning of treatments. At end-point the average of the groups were respectively: vehicle 901.8%, Omomyc 663.6%, Olaparib 623.6%, and combination 335.8%.

MIA-PACA-2 cells = test: Viability of PDAC MIA-PACA-2 cells treated alone and in combination for 5 days; synergy score by SynergyFinder.org; type: cell-based; details: MIA-PACA-2 cells, Omomyc added to Olaparib
Description: (§1) Synergy scores can be interpreted as the average excess response due to drug interactions. Synergy scores close to 0 give limited confidence in synergy or antagonism. So, when the synergy scores are: less than −10, the interaction between two drugs is likely to be antagonistic. From −10 to 10, the interaction between two drugs is likely to be additive. Greater than 10, the interaction between two drugs is likely to be synergistic.
Pancreatic ductal adenocarcinoma (PDAC) MIA-PACA-2 cells were treated with increasing concentrations of Olaparib and the Omomyc peptide sequence SEQ ID NO: 4 alone and in combination, for 5 days.
Then synergy score was calculated by SynergyFinder.org after having carried out 3 biological replicates as described above.

MDA-MB-231 cells [2] = test: Microarray analysis of gene expression in MDA-MB-231 cells; type: cell-based; details: data not shown
MDA-MB-231 cells [3] = test: Viability of MDA-MB-231 TNBC cells treated alone and in combination for 5 days; synergy score by SynergyFinder.org; type: cell-based; details: single agent, 5 days (FIG. 1A)
Method: Triple negative breast cancer (TNBC) cell lines MDA-MB-231, SUM149 and MX-1 were treated with increasing concentrations of Olaparib or Talazoparib and the Omomyc peptide sequence SEQ ID NO: 4, alone and in combination, for 5 days.
Then synergy score was calculated by SynergyFinder.org after having carried out 3 biological replicates.
as §1

B1: Omomyc: Purified recombinant polypeptide of SEQ ID NO: 4: mutated bHLHZip domain of Myc (E61T, E68I, R74Q, R75N) with N-terminal methionine (protein)
chain: TEENVKRRTHNVLERQRRNELKRSFFALRDQIPELENNEKAPKVVILKKATAYILSVQAETQKLISEIDLLRKQNEQLKHKLEQLRNSCA
Relative volume, percentage of tumour growth from the day of randomization (group average at end-point) [1]: 663.6%
reversal of olaparib resistance (MIA-PACA-2 cells): able to revert olaparib resistance
expression of homologous recombination (HR-) and BRCA1/2-deficiency related genes and pathways (MDA-MB-231 cells [2]): reduces the expression
viability of cells (MDA-MB-231 cells [3]): significantly reduces viability
